Patent US20250171534A1 (D2M BIOTHERAPEUTICS, published 2025)
“And” between values parts separate entries of the source, which are not always exact repeats. Identical values can stand only once.

How the values were obtained:
[1] = target: T1, LILRB3 expressed on cells (human, UniProt O75022 24-631); test: flow cytometry on CHO-LILRB3 cells
T1 construct: whole, on cells; Expressed with a GFP tag from the bought plasmid; also called human LILRB3; CHO-LILRB3

[2] = target: T2, LILRB1-ECD-HIS (SinoBiological Cat #: 16014-H02H) (human, UniProt Q8NHL6 24-461); test: BLI (Gator), RB1-ECD-his
T2 construct: Bought protein; also called monomeric antigen LILRB1-ECD-HIS; not shown: His tag
T2 sequence (Q8NHL6 other isoform, or with tags, fused parts or gaps H02H H02H): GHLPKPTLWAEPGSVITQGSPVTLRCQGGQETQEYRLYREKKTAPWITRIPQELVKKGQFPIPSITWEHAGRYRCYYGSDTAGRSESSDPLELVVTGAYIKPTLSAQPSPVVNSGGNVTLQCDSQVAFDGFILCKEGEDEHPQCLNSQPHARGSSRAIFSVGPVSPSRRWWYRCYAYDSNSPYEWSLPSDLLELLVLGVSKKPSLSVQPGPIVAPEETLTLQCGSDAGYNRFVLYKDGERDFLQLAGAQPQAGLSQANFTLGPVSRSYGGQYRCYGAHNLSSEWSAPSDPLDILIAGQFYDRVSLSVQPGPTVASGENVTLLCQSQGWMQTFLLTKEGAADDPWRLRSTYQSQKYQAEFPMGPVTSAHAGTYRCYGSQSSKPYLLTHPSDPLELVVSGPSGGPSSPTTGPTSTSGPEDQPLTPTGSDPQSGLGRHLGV

[3] = target: T3, cynomolgus monkey putative LILRB2 (antigen of the Gator measurement) (cynomolgus monkey); test: BLI (Gator), cyno RB2-his
T3 construct: also called cynomolgus monkey LILRB2

[4] = target: T2, LILRB1-ECD-HIS (SinoBiological Cat #: …); test: SPR (Carterra), LILRB1-ECD-his
[5] = target: T4, human LILRB2 expressed on cells (human, UniProt Q8N423 22-597); test: flow cytometry, Jurkat-LILRB2 cells
T4 construct: In 293T cells it was expressed from pCMV3-LILRB2-GFP; also called CHO-LILRB2; Jurkat-LILRB2
T4 sequence (Q8N423 other isoform, or with tags, fused parts or gaps limits assumed): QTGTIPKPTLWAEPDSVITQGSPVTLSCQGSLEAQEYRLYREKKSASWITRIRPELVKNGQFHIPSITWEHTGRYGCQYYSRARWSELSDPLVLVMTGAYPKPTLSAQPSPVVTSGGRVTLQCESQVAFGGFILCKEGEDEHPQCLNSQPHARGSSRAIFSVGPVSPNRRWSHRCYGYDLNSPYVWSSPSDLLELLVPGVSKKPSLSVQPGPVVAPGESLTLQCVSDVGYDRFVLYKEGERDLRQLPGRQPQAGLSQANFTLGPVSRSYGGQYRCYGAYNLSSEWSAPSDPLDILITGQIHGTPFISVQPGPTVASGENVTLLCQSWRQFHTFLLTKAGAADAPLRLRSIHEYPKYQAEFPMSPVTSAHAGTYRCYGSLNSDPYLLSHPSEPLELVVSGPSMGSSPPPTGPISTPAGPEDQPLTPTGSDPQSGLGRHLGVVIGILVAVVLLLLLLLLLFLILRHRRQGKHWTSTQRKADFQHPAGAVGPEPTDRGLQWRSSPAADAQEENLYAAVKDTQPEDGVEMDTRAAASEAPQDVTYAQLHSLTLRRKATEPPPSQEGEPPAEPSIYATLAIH

[6] = target: T4, human LILRB2 expressed on cells; test: flow cytometry, Jurkat-LILRB2 cells; remark: listed apart in the source
[7] = target: T2, LILRB1-ECD-HIS (SinoBiological Cat #: …); test: SPR (Carterra LSA), antibody captured, antigen injected;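 note: kd obtained from kinetic analysis of antibody binding to the antigen, with association and dissociation phases fitted in the instrument software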
[8] = target: T5, LILRB2-ECD-HIS (SinoBiological Cat #: 14132-H02H) (human, UniProt Q8N423 22-460); test: as above
T5 construct: Bought protein; also called monomeric antigen LILRB2-ECD-HIS; not shown: His tag
T5 sequence (Q8N423 other isoform, or with tags, fused parts or gaps H02H H02H): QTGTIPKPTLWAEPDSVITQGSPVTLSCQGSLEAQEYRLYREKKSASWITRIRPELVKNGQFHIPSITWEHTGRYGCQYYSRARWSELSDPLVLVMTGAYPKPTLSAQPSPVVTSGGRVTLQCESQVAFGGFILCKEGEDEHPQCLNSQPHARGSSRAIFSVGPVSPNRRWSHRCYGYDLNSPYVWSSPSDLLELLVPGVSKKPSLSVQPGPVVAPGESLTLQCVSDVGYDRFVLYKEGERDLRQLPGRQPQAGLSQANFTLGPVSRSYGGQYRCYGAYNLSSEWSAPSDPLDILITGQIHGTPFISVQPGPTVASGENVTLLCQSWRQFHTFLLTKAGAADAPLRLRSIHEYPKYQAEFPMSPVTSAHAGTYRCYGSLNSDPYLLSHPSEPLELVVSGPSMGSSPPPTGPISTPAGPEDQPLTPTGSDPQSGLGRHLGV

[9] = target: T2, LILRB1-ECD-HIS (SinoBiological Cat #: …); test: BLI (Gator), trace labelled 2 µg/mL; unit taken from the Average KD line
[10] = target: T2, LILRB1-ECD-HIS (SinoBiological Cat #: …); test: BLI (Gator), trace labelled 5 µg/mL; unit taken from the Average KD line
[11] = target: T5, LILRB2-ECD-HIS (SinoBiological Cat #: …); test: BLI (Gator), trace labelled 2 µg/mL; unit taken from the Average KD line
[12] = target: T5, LILRB2-ECD-HIS (SinoBiological Cat #: …); test: BLI (Gator), trace labelled 5 µg/mL; unit taken from the Average KD line
[13] = target: T2, LILRB1-ECD-HIS (SinoBiological Cat #: …); test: BLI (Gator), trace labelled 0.5 µg/mL; unit taken from the Average KD line
[14] = target: T5, LILRB2-ECD-HIS (SinoBiological Cat #: …); test: as above
[15] = target: T2, LILRB1-ECD-HIS (SinoBiological Cat #: …); test: BLI (Gator Prime), antibody on anti-hIgG Fc probe, monomeric LILRB1-ECD-HIS in solution
[16] = target: T5, LILRB2-ECD-HIS (SinoBiological Cat #: …); test: BLI (Gator Prime), antibody on anti-hIgG Fc probe, monomeric LILRB2-ECD-HIS in solution
[17] = target: T6, LILRA1 expressed on cells (human, UniProt O75019 17-489); test: flow cytometry on CHO-LILRA1 cells, non-linear fit of the curves of FIG. 26E
T6 construct: whole, on cells; GFP-tagged; also called human LILRA1; CHO-LILRA1
T6 sequence (O75019 17-489): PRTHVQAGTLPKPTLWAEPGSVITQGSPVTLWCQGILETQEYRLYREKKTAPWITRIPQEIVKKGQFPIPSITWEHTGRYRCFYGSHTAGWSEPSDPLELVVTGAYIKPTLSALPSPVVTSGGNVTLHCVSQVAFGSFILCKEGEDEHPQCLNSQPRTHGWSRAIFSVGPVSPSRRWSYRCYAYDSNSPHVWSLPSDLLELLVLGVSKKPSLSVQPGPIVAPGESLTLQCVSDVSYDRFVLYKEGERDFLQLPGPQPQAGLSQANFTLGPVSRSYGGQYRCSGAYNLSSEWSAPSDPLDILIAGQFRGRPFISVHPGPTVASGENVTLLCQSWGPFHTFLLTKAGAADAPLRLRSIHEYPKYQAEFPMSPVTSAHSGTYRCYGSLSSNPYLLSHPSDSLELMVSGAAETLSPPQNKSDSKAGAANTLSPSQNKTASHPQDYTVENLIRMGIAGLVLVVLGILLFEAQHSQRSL

[18] = target: T7, human LILRB1 expressed on cells (human, UniProt Q8NHL6 24-650); test: flow cytometry, Jurkat-LILRB1 cells; blocked ligand: APC HLA-G trimer tetramer
T7 construct: In 293T cells it was expressed from pCMV3-LILRB1-GFP; also called CHO-LILRB1; Jurkat-LILRB1
T7 sequence (Q8NHL6 other isoform, or with tags, fused parts or gaps limits assumed): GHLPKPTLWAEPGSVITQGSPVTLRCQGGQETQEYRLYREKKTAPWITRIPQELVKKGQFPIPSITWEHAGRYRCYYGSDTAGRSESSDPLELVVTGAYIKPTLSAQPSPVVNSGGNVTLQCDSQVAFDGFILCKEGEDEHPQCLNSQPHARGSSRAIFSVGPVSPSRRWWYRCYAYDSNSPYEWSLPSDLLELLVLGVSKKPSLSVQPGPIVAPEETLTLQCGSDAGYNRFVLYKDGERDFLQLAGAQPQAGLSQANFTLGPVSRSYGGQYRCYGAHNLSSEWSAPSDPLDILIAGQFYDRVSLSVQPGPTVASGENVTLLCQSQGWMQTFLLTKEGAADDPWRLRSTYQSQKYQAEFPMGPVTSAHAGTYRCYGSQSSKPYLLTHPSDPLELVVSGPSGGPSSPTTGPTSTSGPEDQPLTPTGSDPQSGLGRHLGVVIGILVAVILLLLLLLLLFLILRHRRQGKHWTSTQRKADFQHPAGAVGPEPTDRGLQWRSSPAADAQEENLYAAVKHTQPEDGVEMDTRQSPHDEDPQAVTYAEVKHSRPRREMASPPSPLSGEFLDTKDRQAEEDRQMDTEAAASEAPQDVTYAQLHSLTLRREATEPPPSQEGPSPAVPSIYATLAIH

[19] = target: T4, human LILRB2 expressed on cells; test: flow cytometry, Jurkat-LILRB2 cells; blocked ligand: APC HLA-G monomer tetramer
[20] = target: T4, human LILRB2 expressed on cells; test: as above; remark: listed apart in the source
[21] = target: T4, human LILRB2 expressed on cells; test: flow cytometry on CHO-LILRB2 cells (CHO-RB2), titrated antibody, labelled anti-human Fc, gMFI
[22] = target: T6, LILRA1 expressed on cells; test: flow cytometry on CHO-LILRA1 cells (CHO-RA1), titrated antibody, labelled anti-human Fc, gMFI
[23] = target: T8, LILRA3 expressed on 293T cells (UniProt Q8N6C8 24-439, limits assumed); test: flow cytometry on 293T cells transiently expressing LILRA3, APC anti-human Fc; gMFI as fold to IgG staining
T8 construct: whole, on cells; GFP-tagged, transient
T8 sequence (Q8N6C8 24-439 limits assumed): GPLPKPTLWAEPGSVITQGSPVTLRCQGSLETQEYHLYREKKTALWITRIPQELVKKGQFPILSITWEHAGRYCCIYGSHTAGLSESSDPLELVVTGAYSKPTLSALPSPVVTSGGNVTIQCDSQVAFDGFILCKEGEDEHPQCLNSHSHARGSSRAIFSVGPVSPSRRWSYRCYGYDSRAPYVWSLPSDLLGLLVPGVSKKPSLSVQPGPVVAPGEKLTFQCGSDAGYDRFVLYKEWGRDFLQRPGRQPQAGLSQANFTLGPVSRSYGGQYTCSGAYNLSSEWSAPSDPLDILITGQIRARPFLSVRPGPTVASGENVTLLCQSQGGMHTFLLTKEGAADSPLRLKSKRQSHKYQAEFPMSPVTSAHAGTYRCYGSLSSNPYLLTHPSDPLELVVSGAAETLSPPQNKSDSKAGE

B1: D2M002-002 (antibody, V domains shown)
VH: EVQLQQSGPELVKPGASVKMSCKASGYTFTRYVMHWVKQKPGQGLEWIGYINPNNDGTKYNEKFKGKVTLTSDKSSSTAYMELSSLTSEDSAVYYCARGDLEILPYYDHARNAMDYWGQGTSVTVSS
VL: DVQMIQSPASLSASVGETVTITCRASENIYSYLAWYQQKQGKSPQLLVYNAKTLAEGVPSRFSGSGSGTQFSLKINSLQPEDFGSYYCQHFWSTPPTFGGGTKLEIK
notes: Hit from immunised mice; also called clone #2; anti-LILRB1/2 clone #2
Question: Which results are given for B1?
Answer: EC50 [1]: 4 µg/mL and 26.6 nM; Kd [2]: 2.12 nM; Kd [3]: 1.36 nM; Kd [4]: 5.67 nM; koff [4]: 0.000347 s⁻¹; kon [4]: 61300 M⁻¹ s⁻¹; EC50 (read off the curve) [5]: ~0.3 µg/mL; EC50 [6]: 0.258 µg/mL; Kd [7]: 9.77 nM; Kd [8]: 1.57 nM; Kd [9]: 3.45 nM; Kd [10]: 3.61 nM; Kd [11]: 0.242 nM; Kd [12]: 0.351 nM; Kd [13]: 3.13 nM; Kd [14]: 0.265 nM; Kd [15]: 3.4 nM; Kd [16]: 0.286 nM; EC50 [17]: 0.474 µg/mL; MaxMFI [17]: 19500; IC50 [18]: 0.191 µg/mL; IC50 (read off the curve) [19]: ~0.06 µg/mL; IC50 [20]: 0.065 µg/mL; EC50 (read off the curve) [21]: ~0.1 µg/mL; EC50 (read off the curve) [22]: ~0.5 µg/mL; binding result [23]: no binding (tested: 5 µg/mL)
